Test results published in US20260055188A1.

Biological target: Human-TNFR2-His (manufacturer: SINO, CAT: 10417-H08H) (human) (UniProt P20333)
Test: flow cytometry, bridging: CHOK1-18.2 cells (human Claudin18.2) + 150 nM isotype control + human TNFR2-His, anti-His FITC detection; irrelevant antibody (blank 13476)

Human IgG1 kappa Isotype control (Sino Biological, Cat. No.: HG1K) (antibody)
E1 Mean FITC-A: 14400
